According to paper PMC3949515, “Multi-PAS domain-mediated protein oligomerization of PpsR from Rhodobacter sphaeroides” (Acta Crystallographica Section D: Biological Crystallography, 2014):
Values joined by “and” are separate entries in the source; they are usually repeats but may differ in a detail not shown here. Equal entries are not always repeated. Blank lines part the entries; values can stand above or below the molecule they belong to.

Tests used:
[1] = target: PpsR_(N-Q-PAS1), PpsR variant comprising the N-terminal domain, the Q-linker and the PAS1 domain (Rhodobacter sphaeroides) (UniProt Q9S301); experiment: SEC-MALS; Superdex 200 10/300 GL, buffer D (10 mM CHES pH 9.0, 150 mM NaCl, 5% glycerol), 400 µl of a 20 µM protein solution loaded, 0.5 ml/min
[2] = target: PpsR_(N-Q-PAS1), PpsR variant comprising the N-terminal domain, the Q-linker and the PAS1 domain (Rhodobacter sphaeroides) (UniProt Q9S301); experiment: crystal structure; PpsR_(N-Q-PAS1), 10 mg/ml, 1.6 M ammonium sulfate, 100 mM MES pH 6.5, 10 mM L-cysteine, 4% 1,4-dioxane, 293 K; dimer in the asymmetric unit; 2.2 Å
[3] = target: PpsR_(N-Q-PAS1), PpsR variant comprising the N-terminal domain, the Q-linker and the PAS1 domain (Rhodobacter sphaeroides) (UniProt Q9S301); experiment: MST; dimer to monomers, KD based on the total monomer concentration; Monolith NT.115, unlabelled protein titrated (1:2 dilution series) into NT-647-labelled protein (10 nM for PpsR_(N-Q-PAS1)), buffer D, three experiments averaged
[4] = target: PpsR_(Q-PAS1), PpsR variant comprising the glutamine-rich linker (Q-linker) and the PAS1 domain (Rhodobacter sphaeroides) (UniProt Q9S301); experiment: crystal structure; PpsR_(Q-PAS1), 8 mg/ml, 100 mM sodium cacodylate pH 6.5, 1.9% PEG 3000, 200 mM MgCl2, 293 K; one chain in the asymmetric unit, dimer by a crystallographic dyad; 1.65 Å
[5] = target: the molecule itself; experiment: SEC-MALS; Superdex 200 10/300 GL, buffer D (10 mM CHES pH 9.0, 150 mM NaCl, 5% glycerol), 400 µl of a 20 µM protein solution loaded, 0.5 ml/min
[6] = target: the molecule itself; experiment: MST; tetramer to dimers, KD based on the total dimer concentration; Monolith NT.115, unlabelled protein titrated (1:2 dilution series) into 12.5 nM NT-647-labelled protein, buffer D, three experiments averaged
[7] = target: the molecule itself; experiment: crystal structure; PpsR_(ΔHTH), 30 mg/ml, 1 M ammonium sulfate, 100 mM Tris-HCl pH 8.5, 6% xylitol, 12% glycerol, 1% dioxane, 293 K; four chains in the asymmetric unit, octamer by a crystallographic twofold axis; 2.8 Å

stoichiometry N [1]: 2 | stoichiometry N [2]: 2 | Kd [3]: 250 nM
Molecule: PpsR_(N-Q-PAS1), PpsR variant comprising the N-terminal domain, the Q-linker and the PAS1 domain (from UniProt Q9S301 1-257) (domain or fragment)

stoichiometry N [4]: 2
Molecule: PpsR_(Q-PAS1), PpsR variant comprising the glutamine-rich linker (Q-linker) and the PAS1 domain (from UniProt Q9S301 123-257) (domain or fragment)

B1: PpsR_(ΔHTH), triple PAS domain construct of PpsR (N-domain, Q-linker, PAS1, PAS2) lacking the C-terminal HTH motif (domain or fragment, Rhodobacter sphaeroides, UniProt Q9S301 1-379, looked up)
chain: MLAGGSLPSLAPDLVRDLIATAADISLLVSQEGVVREVMANPHHPSFGQLSEWEGRPLEEVLTAESVAKFRLRSEGLEPGRGSVAVELNHIDPRSFEFPIRYILHRLPADRSILMLGRDLRPIAEVQQQLVAAQLAMERDYETQREMETRYRVVLDVSRDPMVLVSMSTGRIVDLNSAAGLLLGGVRQDLLGAAIAQEFEGRRRGEFMETMTNLAATESAAPVEVLARRSQKRLLVVPRVFRAAGERLLLCQIDPADATQPVGDELSENLARLYHEGVDGIVFSDADGTIRGANEAFLNMTDSSSLAAIRGRSIADFLARGSVDLRVLIDSVRRTGQLRLYATRLTTDFAGQIAAEISATWLDDRERPLLVLVVRDTSR
notes: PpsR from Rhodobacter sphaeroides, UniProt Q9S301; the model ends at 378 with the C-terminal arginine disordered; The forward primer 1_fw introduces ATG GGA before the first codon of PpsR; In MST one copy was randomly labelled at amines with NT-647; A selenomethionine-substituted form was also crystallized for phasing; source: E. coli BL21 (DE3), purified (Ni-NTA, TEV cleavage, Superdex 200); …
stoichiometry N [5]: 2 | Kd [6]: 900 ± 200 nM | stoichiometry N [7]: 4 and 8

B2: PpsR_(full), full-length transcription factor PpsR (photopigment suppression) from Rhodobacter sphaeroides (natural protein, UniProt Q9S301 1-464, looked up)
chain: MLAGGSLPSLAPDLVRDLIATAADISLLVSQEGVVREVMANPHHPSFGQLSEWEGRPLEEVLTAESVAKFRLRSEGLEPGRGSVAVELNHIDPRSFEFPIRYILHRLPADRSILMLGRDLRPIAEVQQQLVAAQLAMERDYETQREMETRYRVVLDVSRDPMVLVSMSTGRIVDLNSAAGLLLGGVRQDLLGAAIAQEFEGRRRGEFMETMTNLAATESAAPVEVLARRSQKRLLVVPRVFRAAGERLLLCQIDPADATQPVGDELSENLARLYHEGVDGIVFSDADGTIRGANEAFLNMTDSSSLAAIRGRSIADFLARGSVDLRVLIDSVRRTGQLRLYATRLTTDFAGQIAAEISATWLDDRERPLLVLVVRDTSRADTMRRPVPATGVIDEPARNVMELVGNSTLKDIVAETTDVVEKMCIETALELTRNNRVAAAEMLSLSRQSLYVKLRKFGLLNKDE
notes: PpsR from Rhodobacter sphaeroides, UniProt Q9S301, full-length protein; gene synthesized with codon optimization for E. coli, cloned in pETM-11; In MST one copy was randomly labelled at amine positions with NT-647 red fluorescent dye (about one label per monomer); In solution a dimer-tetramer equilibrium; source: E. coli BL21 (DE3), purified (Ni-NTA, TEV cleavage, HiTrap Heparin, Superdex 200); …
Kd [6]: 900 ± 300 nM
